Measurements published in the supplement of paper PMC9170038.

Tests used:
MS2 coat protein [1] = experiment: apparent KD of MS2 coat protein, switch OFF state (with FMN for OFF switches, without FMN for ON switches); designed switch direction (-1 OFF switch, 1 ON switch): -1; higher = weaker reporter binding; conditions: FMN input: 0 or 200 uM; Eterna round: R93 (includes R88 designs)
Outline: (§1)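 Apparent KD was obtained for each design as the median of normalised binding-curve fits over its clusters. RNA switches transcribed on-chip from Illumina sequencing clusters were titrated with SNAP-549-labelled MS2 coat protein (twofold steps, 0.7 or 1.5 nM to 3 µM) in 100 mM Tris-HCl pH 7.5, 80 mM KCl, 4 mM MgCl2, without or with constant ligand.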

MS2 coat protein [2] = experiment: apparent KD of MS2 coat protein, switch ON state; designed switch direction (-1 OFF switch, 1 ON switch): -1; higher = weaker reporter binding; conditions: FMN input: 0 or 200 uM; Eterna round: R93 (includes R88 designs)
Outline: as §1

MS2 coat protein [3] = experiment: apparent KD of MS2 coat protein; designed switch direction (-1 OFF switch, 1 ON switch): 1; higher = weaker reporter binding
Outline: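 The reported apparent KD is a per-design median over clusters, from curve fits of normalised cluster fluorescence. Protein titrations used SNAP-549-labelled MS2 coat protein, doubled from 0.7 or 1.5 nM to 3 µM, in Tris-HCl pH 7.5 buffer with KCl, MgCl2, BSA, DTT, tRNA and Tween-20, with no input, 200 uM small-molecule ligand, or an oligonucleotide input. The RNA switches were transcribed on Illumina chips by stalled E. coli RNA polymerase.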

[4] = input ligand: microRNA oligo, concentration not stated

Sequence | apparent KD of MS2 coat protein (MS2 coat protein [1]) | apparent KD of MS2 coat protein (MS2 coat protein [2]) | apparent KD of MS2 coat protein (MS2 coat protein [3]; input ligand: FMN 200 uM) | apparent KD of MS2 coat protein (MS2 coat protein [3]; [4]) | apparent KD of MS2 coat protein (MS2 coat protein [3]; input ligand: none)
CUCUAGUGAGGAUAUGCAAGAAAAGAAGAGAAAGAAAAGAAGCAGAAGGCACAUGAGGAUCACCCAUGUAAGAA [EteRNA is fun!] | 71.8 nM | 32.4 nM |  |  | 
AAACAUGGAGGAUAUACAUGAGGAUCACCCAUGUGUAUAAAAAAAUAUACAAAAGAAUGUAGAAGGCCAUGAAA [Ex 3 Snow] | 54.2 nM | 36.1 nM |  |  | 
AUAAAGUGAGGAUAUACAUGAGGAUCACCCAUGUGAAAGUCUAAAAAAAUGACAAAAAGUAGAAGGCACAAAUA [Mai Tai2 ala mod Fisker] | 23.5 nM | 18.8 nM |  |  | 
AAGAAUGGAGGAUAUACAUGAGGAUCACCCAUGUAAAAGAAAGAAAGGGAAAAGAAAAGUAGAAGGCCAAAGAA [Hedjkheperre Harsiese] | 42.1 nM | 46.6 nM |  |  | 
AAAAAACAUGAGGAUCACCCAUGUAAGGAUAUGCUGAAAAACACGGAAAAAACGUGCAGCAGAAGGUACAAAAA [66%, Wbt, 33] | 28.3 nM | 20.1 nM |  |  | 
AAAAUGUCAGGAUAUGUAGCAAAAAGUGAUCCAAAAAAGCUACAGAAGGGACAUGAGGAUCACCCAUGUAAAAA [Ex4: 932] | 406 nM | 244 nM |  |  | 
GAAAAGUCAGGAUAUACAGAAAAAAAAACGAAAAAAAAUCUGUAGAAGGGACAUGAGGAUCACCCAUGUUAAAA [Mat - Exclusion 4 - Mayanna - D125] | 24 nM | 46.9 nM |  |  | 
AGUCAUACAGGAUAUACAUGAGGAUCACCCAUGUUUAUCCUAAAAUAAAAAAAAACAUGUAGAAGGGUAUGACA [EX3 215: Super Stable 15] | 14.1 nM | 15.1 nM |  |  | 
CUCAAGUUAGGAUAUUGAAGAAAAGAAGAGAAAGAAAAGAACAAGAAGGAACAUGAGGAUCACCCAUGUAAGAA [EteRNA is fun!] | 21.8 nM | 22.9 nM |  |  | 
AACCAACAUGAGGAUCACCCAUGUCAGGAUAUGCAUACAACAUACAACAUACAUCAAAGCAGAAGGGACAAAAA [Amethyst 83] | 24.1 nM | 26.1 nM |  |  | 
AAAAAACAUGAGGAUCACCCAUGUGAGGAUAUGAUGCGAAUAAAGAAAGAAGAAAGCAUCAGAAGGCACAAAAA [58%, Disencluded 3, 2] | 43.5 nM | 25.8 nM |  |  | 
AUAAAACAUGAGGAUCACCCAUGUCAGGAUAUACGAUAUUAAAUUUAAUAUAUUUAUAGUAGAAGGGACAAAUA [High Five] | 37.1 nM | 31.6 nM |  |  | 
AAGAAGUUAGGAUAUGCUGCUCGUCACAAAAGUGAUGAGUAGCAGAAGGGACAUGAGGAUCACCCAUGUAAAGA [JL eternac mod 5] | 24.1 nM | 36.7 nM |  |  | 
GAAAUGUCAGGAUAUGCGAAGGCGUCUGAUAGACGAGGAUAGCAGAAGGGACAUGAGGAUCACCCAUGUAAAAA [Opal 13] | 220 nM | 117 nM |  |  | 
AACGAAUGAGGAUAUACAAACAGAAAAAUCAGACAUAACAGACAUGAGGAUCACCCAUGUAGAAGGCAUAAACA [JR_Exc002_Sub902] | 18.7 nM | 25.5 nM |  |  | 
AAGAACUUAGGAUAUACAAAAUAAAAGAAAAGAAAGAAAGAACAUGAGGAUCACCCAUGUAGAAGGGAGAAGAA [Nimaatre Amenemhat III] | 29.8 nM | 55.9 nM |  |  | 
CAAAGGUGAGGAUAUACAAAAAAAUGACGAAAGUCAUCCACACAUGAGGAUCACCCAUGUAGAAGGCACCACAA [E2 64% 6] | 29.2 nM | 30 nM |  |  | 
AAAAAGUCAGGAUAUACAGGAGUGCGAAAGCACAAAAAAAAACAUGAGGAUCACCCAUGUAGAAGGGACAAGAA [Married to this design, 61% 6] | 33.1 nM | 52.7 nM |  |  | 
GGGUCACAUGAGGAUCACCCAUGUAAGGAUAUGCUAGGGAUGGAAGCCAGGCCAAAAAGCAGAAGGUACUAAAG [Janelle Amethyst 18 Mod 15 - Jieux - Exclusion 1] | 85.8 nM | 41.2 nM |  |  | 
AAGAGUACAGGAUAUACAUGAGGAUCACCCAUGUGAAAAUUAAGUGGCGUACAACAAAGUAGAAGGGUACUGGA [Ruby 51] | 41.7 nM | 21.9 nM |  |  | 

Sequence | apparent KD of MS2 coat protein (MS2 coat protein [1]) | apparent KD of MS2 coat protein (MS2 coat protein [2]) | apparent KD of MS2 coat protein (MS2 coat protein [3]; input ligand: FMN 200 uM) | apparent KD of MS2 coat protein (MS2 coat protein [3]; [4]) | apparent KD of MS2 coat protein (MS2 coat protein [3]; input ligand: none)
AAUAUCGGAGGAUAUGCAUAGAUAAAGAAUUAUGUUAAAACACAUGAGGAUCACCCAUGUAGAAGGCCGAUAAA [AJ 8] | 88 nM | 22.2 nM |  |  | 
GAUAAACAUGAGGAUCACCCAUGUCAGGAUAUGCACUAACUAACUAACUAACUAGCUAGCAGAAGGGACACUAC [Amethyst 86] | 33.4 nM | 24.9 nM |  |  | 
AGCUAGUCAGGAUAUACAAAAAUGAUAGAAGACGUAAGGGAACAUGAGGAUCACCCAUGUAGAAGGGACUAGCA [Diamond 44] | 129 nM | 41 nM |  |  | 
GAAAAACAUGAGGAUCACCCAUGUUAGGAUAUGCUAUGGAAAAUAAAAAAUAAACAUAGCAGAAGGAACAAAAG [Mat - Exclusion 1 - Eli mod - D31] | 36.7 nM | 20.3 nM |  |  | 
AACUGACAUGAGGAUCACCCAUGUCAGGAUAUGACAUCGAGAAAUAAAUAAAUCGUUGUCAGAAGGGACAUGAA [Design 79: Sub-opt TB] | 13.4 nM | 17.5 nM |  |  | 
AGCUAGUCAGGAUAUACGAACAUGUCAUAAGACGUGAAGGGACAUGAGGAUCACCCAUGUAGAAGGGACUAGCA [74%, Web mod - With 1 more U's] | 139 nM | 36.7 nM |  |  | 
AAGAAGGGAGGAUAUACAAAAUAAAAGAAAAGAAAGAAAGAACAUGAGGAUCACCCAUGUAGAAGGCCCAAGAA [Iufni] | 21.2 nM | 22.3 nM |  |  | 
AUAAGUGCAGGAUAUACGAAAAGCUAGCGAAAGCUAGCGGGACAUGAGGAUCACCCAUGUAGAAGGGCACAAUA [Tetraloop hairpin BlockHead... 61% 6] | 50.3 nM | 25 nM |  |  | 
AAGAACCUAGGAUAUACAUGAAAGAAAGAAAAGAAAAGAAAACAUGAGGAUCACCCAUGUAGAAGGAGGUAGAA [EteRNA is fun!] | 50.5 nM | 26.7 nM |  |  | 
AGCAAGUCAGGAUAUACGAACAAGACAAAAGACGUGAAGGGACAUGAGGAUCACCCAUGUAGAAGGGACUAGCA [74%, Web mod - With 3 less U's] | 61.7 nM | 59.8 nM |  |  | 
AAGAGGCGAGGAUAUACAUGAGGAUCACCCAUGUAAUCCGGAUAAGGAAGCAUGUCGUGUAGAAGGUGCCAUGA [water's exclusion 3 last] | 20.2 nM | 19.2 nM |  |  | 
AGAAAGUCAGGAUAUAUAGGAAAAAUAAAAAAAAUAAAACUAUAGAAGGGACAUGAGGAUCACCCAUGUUAAGA [Mat - Exclusion 4 - Mayanna - D133] | 17.8 nM | 34 nM |  |  | 
AAGAAGGAAGGAUAUACAAAAUAAAAGAAAAGAAAGAAAGAACAUGAGGAUCACCCAUGUAGAAGGUCCAAGAA [Sedjefakare] | 34.7 nM | 29.8 nM |  |  | 
AGUUGGCGAGGAUAUACAUGAGGAUCACCCAUGUGAGAGAAAAAAAAGAGAAAAAAAAGUAGAAGGCGCUGACA [Mat - Exclusion 3 - Lego mod - D42] | 130 nM | 42.6 nM |  |  | 
AAUAACAGAGGAUAUACGAAAAUAAGCGGAAACGCAAAGGGACAUGAGGAUCACCCAUGUAGAAGGCUGGAUAA [Tetraloop... 61% 2] | 148 nM | 28.3 nM |  |  | 
UCCUCACAUGAGGAUCACCCAUGUGAGGAUAUGUACAUCAGGAAAAAAAAACUGAUGUACAGAAGGCACAUGGG [Design 8: Super Stable G-C] | 15.2 nM | 30.8 nM |  |  | 
UUGAAGAAUUAAGGAUAUCGAGUCGUCAAAUUAAACAUGAGGAUCACCCAUGUGGGUUGUGGUAUCGAGAAGGUAAAUUACUAA [JR_SSNG2_Sub100] (Eterna round: R96, puzzle: Same State NG 2) |  |  | 57.1 nM | 66.4 nM | 84.7 nM
GGAUGAUAGACAGGAUAUUGAAUGUAAUUAGGACAAGAAGGGUCAAUGAUUUAAACGACCAGUUACAUGAGGAUCACCCAUGUU [JR_SSNG1_Sub025] (Eterna round: R96, puzzle: Same State NG 1) |  |  | 44.9 nM | 38.1 nM | 49.1 nM
UGCUUCAUGUAAGGAUAUGCAGCCGUUUCGGCUGCAGAAGGUACUAUAAUACAUGAGGAUCACCCAUGUCUCUCGCAUUGCGGG [salish99_SSng1_r04_302] (Eterna round: R96, puzzle: Same State NG 1) |  |  | 91 nM | 118 nM | 184 nM
GGAGCCAAGGCAGGAUAUUCAUAUUAAUAACAUGAGGAUCACCCAUGUUGGGCCAGAAGGCCUUGGGAGAAGGGCCAUGGCUCG [Xeonanis - 13 mod17] (Eterna round: R96, puzzle: Same State NG 2) |  |  | 20.1 nM | 24.7 nM | 36.5 nM
